What was measured:
purified protein [1] = substrate: CC(=O)SCCNC(=O)CCNC(=O)[C@H](O)C(C)(C)COP(=O)(O)OP(=O)(O)OC[C@H]1O[C@@H](n2cnc3c(N)ncnc32)[C@H](O)[C@@H]1OP(=O)(O)O; experiment: purified protein; conditions: 50 mM HEPES-K pH 8.0, 2 mM EDTA, 0.3 mM DTNB, 37 °C
purified protein [2] = substrate: CC(C(=O)O)C(=O)SCCNC(=O)CCNC(=O)[C@H](O)C(C)(C)COP(=O)(O)OP(=O)(O)OC[C@H]1O[C@@H](n2cnc3c(N)ncnc32)[C@H](O)[C@@H]1OP(=O)(O)O; experiment: purified protein; conditions: 50 mM HEPES-K pH 8.0, 2 mM EDTA, 0.3 mM DTNB, 37 °C
purified protein [3] = substrate: CC(C)(COP(=O)(O)OP(=O)(O)OC[C@H]1O[C@@H](n2cnc3c(N)ncnc32)[C@H](O)[C@@H]1OP(=O)(O)O)[C@@H](O)C(=O)NCCC(=O)NCCSC(=O)CCC(=O)O; experiment: purified protein; conditions: 50 mM HEPES-K pH 8.0, 2 mM EDTA, 0.3 mM DTNB, 37 °C
purified protein [4] = substrate: CC(C)(COP(=O)(O)OP(=O)(O)OC[C@H]1O[C@@H](n2cnc3c(N)ncnc32)[C@H](O)[C@@H]1OP(=O)(O)O)[C@@H](O)C(=O)NCCC(=O)NCCSC(=O)CCCC(=O)O; experiment: purified protein; conditions: 50 mM HEPES-K pH 8.0, 2 mM EDTA, 0.3 mM DTNB, 37 °C
purified protein [5] = substrate: CC(C)(COP(=O)(O)OP(=O)(O)OC[C@H]1O[C@@H](n2cnc3c(N)ncnc32)[C@H](O)[C@@H]1OP(=O)(O)O)[C@@H](O)C(=O)NCCC(=O)NCCSC(=O)C[C@@](C)(O)CC(=O)O; experiment: purified protein; conditions: 50 mM HEPES-K pH 8.0, 2 mM EDTA, 0.3 mM DTNB, 37 °C
purified protein [6] = substrate: CC(C)(COP(=O)(O)OP(=O)(O)OC[C@H]1O[C@@H](n2cnc3c(N)ncnc32)[C@H](O)[C@@H]1OP(=O)(O)O)[C@@H](O)C(=O)NCCC(=O)NCCSC(=O)Cc1ccccc1; experiment: purified protein; conditions: 50 mM HEPES-K pH 8.0, 2 mM EDTA, 0.3 mM DTNB, 37 °C
purified protein [7] = substrate: CC(O)CC(=O)SCCNC(=O)CCNC(=O)[C@H](O)C(C)(C)COP(=O)(O)OP(=O)(O)OC[C@H]1O[C@@H](n2cnc3c(N)ncnc32)[C@H](O)[C@@H]1OP(=O)(O)O; experiment: purified protein; conditions: 50 mM HEPES-K pH 8.0, 2 mM EDTA, 0.3 mM DTNB, 37 °C
purified protein [8] = substrate: CCCCCC(=O)SCCNC(=O)CCNC(=O)[C@H](O)C(C)(C)COP(=O)(O)OP(=O)(O)OC[C@H]1O[C@@H](n2cnc3c(N)ncnc32)[C@H](O)[C@@H]1OP(=O)(O)O; experiment: purified protein; conditions: 50 mM HEPES-K pH 8.0, 2 mM EDTA, 0.3 mM DTNB, 37 °C
purified protein [9] = substrate: CCCCCCCC(=O)SCCNC(=O)CCNC(=O)[C@H](O)C(C)(C)COP(=O)(O)OP(=O)(O)OC[C@H]1O[C@@H](n2cnc3c(N)ncnc32)[C@H](O)[C@@H]1OP(=O)(O)O; experiment: purified protein; conditions: 50 mM HEPES-K pH 8.0, 2 mM EDTA, 0.3 mM DTNB, 37 °C
purified protein [10] = substrate: CCCCCCCCCCCCCCCC(=O)SCCNC(=O)CCNC(=O)[C@H](O)C(C)(C)COP(=O)(O)OP(=O)(O)OC[C@H]1O[C@@H](n2cnc3c(N)ncnc32)[C@H](O)[C@@H]1OP(=O)(O)O; experiment: purified protein; conditions: 50 mM HEPES-K pH 8.0, 2 mM EDTA, 0.3 mM DTNB, 37 °C
purified protein [11] = substrate: CCCCCCCCCCCCCCCCCC(=O)SCCNC(=O)CCNC(=O)[C@H](O)C(C)(C)COP(=O)(O)OP(=O)(O)OC[C@H]1O[C@@H](n2cnc3c(N)ncnc32)[C@H](O)[C@@H]1OP(=O)(O)O; experiment: purified protein; conditions: 50 mM HEPES-K pH 8.0, 2 mM EDTA, 0.3 mM DTNB, 37 °C
SEC = molecular target: the molecule itself; experiment: SEC

B1: PA5202 (enzyme, Pseudomonas aeruginosa, UniProt Q9HTY7 1-129, looked up)
chain: MSEMPAREQMISAYSELVGLDPVSLGDGVAEVRLPMAAHLRNRGGVMHGGALFSLMDVTMGLACSSSHGFDRQSVTLECKINYIRAVADGEVRCVARVLHAGRRSLVVEAEVRQGDKLVAKGQGTFAQL
Purified protein [1]
  Km: 500 ± 100 µM
  kcat: 0.2 ± 0.03 s⁻¹
  kcat/Km: 400 M⁻¹ s⁻¹
Purified protein [2]
  Km: 400 ± 40 µM
  kcat: 0.3 ± 0.01 s⁻¹
  kcat/Km: 800 M⁻¹ s⁻¹
Purified protein [3]
  Km: 100 ± 20 µM
  kcat: 0.8 ± 0.03 s⁻¹
  kcat/Km: 7000 M⁻¹ s⁻¹
Purified protein [4]
  Km: 700 ± 100 µM
  kcat: 26.8 ± 0.9 s⁻¹
  kcat/Km: 40000 M⁻¹ s⁻¹
Purified protein [5]
  Km: 100 ± 10 µM
Purified protein [6]
  Km: 1100 ± 10 µM
  kcat: 0.1 ± 0.01 s⁻¹
  kcat/Km: 100 M⁻¹ s⁻¹
Purified protein [7]
  Km: 500 ± 50 µM
  kcat: 2 ± 0.1 s⁻¹
  kcat/Km: 4000 M⁻¹ s⁻¹
Purified protein [8]
  Km: 200 ± 20 µM
Purified protein [9]
  Km: 400 ± 60 µM
  kcat: 2.4 ± 0.2 s⁻¹
  kcat/Km: 7000 M⁻¹ s⁻¹
Purified protein [10]
  Km: 20 ± 10 µM
  kcat: 0.3 ± 0.03 s⁻¹
  kcat/Km: 13000 M⁻¹ s⁻¹
Purified protein [11]
  Km: 5 ± 1 µM
  kcat: 0.04 ± 0.003 s⁻¹
  kcat/Km: 8000 M⁻¹ s⁻¹
SEC
  stoichiometry N: 4

B2: PA2801 (enzyme, Pseudomonas aeruginosa)
chain: MADRQLLHTAHIPVRWGDMDSYGHVNNTLYFQYLEEARVAWFETLGIDLEGAAEGPVVLQSLHTYLKPVVHPATVVVELYAGRLGTSSLVLEHRLHTLEDPQGTYGEGHCKLVWVRHAENRSTPVPDSIRAAIA
SEC
  stoichiometry N: 4

B3: PA5185 (enzyme, Pseudomonas aeruginosa)
chain: MATAPRPLREQYLHFQPISTRWHDNDIYGHVNNVTYYAFFDTAVNTYLIERGGLDIQGGEVIGLVVSSSCDYFAPVAFPQRIEMGLRVARLGNSSVQYELALFLEGQREACAAGRFVHVFVERRSSRPVAIPQELRDALAALQSSAQ
SEC
  stoichiometry N: 4

B4: PA1835 (natural protein, Pseudomonas aeruginosa)
chain: MSQMMQMYQQVGPAQFSAMIGQFAPYFASIAPQFVELRPGYAEVTFPKRREVLNHIGTVHAIALCNAAELAAGTMTDASIPAGHRWIPRGMTVEYLAKATGDVRAVADGSQIDWQATGNLVVPVVAYVDDKPVFRAEITMYVSQA
SEC
  stoichiometry N: 2

B5: PA5026 (natural protein, Pseudomonas aeruginosa)
chain: MPLPTELARHLTEEKIAFVQRSGLRAEVLEPGYVRLRMPGAGNENHIGSMYAGALFTLAELPGGALFLTSFDSARFYPIVKEMTLRFRRPAKGDIRVEARLDAERIRQLETEAGERGKAEYSLELQLTDEQGEVVAESAALYQLRSHARP
SEC
  stoichiometry N: 2

— publication PMC3836677 (The Biochemical journal, 2012)
